Residue numbers refer to the chain shown, from its start. Names may count otherwise. Blank lines part the entries; values can stand above or below the binder they belong to.
Tests used:
[1] = target: T1, GPRC5D (G-protein coupled receptor family C group 5 member D), human, on multiple myeloma cell lines (human, UniProt Q9NZD1 1-345); assay: cell-based or functional assay
[2] = target: T2, CD3 (Cluster of Differentiation 3 protein), human, on T cells / Jurkat cells (human, UniProt P07766 23-207; P04234 22-171; P09693 23-182); assay: FACS, Jurkat cells, antibody at 50 µg/ml
T2 construct: whole, on cells; part of the TCR-CD3 complex; also called human CD3
Method: (§1) The binding affinities of the generated humanized Fab-scFv-Fab bispecific antibodies were determined by FACS analysis. […] (a) Jurkat cells were washed by Staining Buffer (PBS+1% BSA) in round bottom 96-well plate. [0833] (b) Antibody dilutions and cells were added to each well, incubated at 4 degrees for 1 hour. [0834] (c) Cells were spined down at 300 g for 3 minutes, and the supernatants were discarded. [0835] (d) Cells were washed with Staining Buffer. […] (e) Step (d) was repeated and the cells were incubated for 0.5 hours at 4 degrees with secondary antibody in Staining Buffer. [0837] (f) After incubation, step (d)-(e) were repeated. […] (g) Staining Buffer was added and fluorescence signals were recorded by flow cytometry.

[3] = target: T1, GPRC5D (G-protein coupled receptor …); assay: cell-based or functional assay; remark: listed apart in the source
[4] = target: T1, GPRC5D (G-protein coupled receptor …); assay: FACS, MOLP-8 cells
Method: as §1
(§2) The binding affinities of the generated humanized Fab-scFv-Fab bispecific antibodies to different multiple myeloma cell lines were evaluated by FACS analysis. The protocol for FACS analysis is identical to that described in Example 3.2, except that different cells were used in this example, i.e., multiple myeloma cell lines (MM.1S, […], L363 and RPMI 8226) were used in this example.

[5] = target: T1, GPRC5D (G-protein coupled receptor …); assay: FACS, MM.1S cells
Method: as §1, §2

T2 sequence (P07766 23-207, chain 1 of 3): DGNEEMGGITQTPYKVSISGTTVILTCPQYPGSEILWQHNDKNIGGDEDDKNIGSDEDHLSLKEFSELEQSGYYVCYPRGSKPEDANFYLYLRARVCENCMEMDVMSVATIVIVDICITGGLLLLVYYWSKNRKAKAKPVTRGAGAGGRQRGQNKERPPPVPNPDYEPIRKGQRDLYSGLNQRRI
T2 sequence (P04234 22-171, chain 2 of 3): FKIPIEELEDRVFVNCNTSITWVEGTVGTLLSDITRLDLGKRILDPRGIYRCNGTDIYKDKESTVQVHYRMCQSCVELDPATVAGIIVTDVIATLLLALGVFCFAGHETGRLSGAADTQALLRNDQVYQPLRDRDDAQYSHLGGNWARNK
T2 sequence (P09693 23-182, chain 3 of 3): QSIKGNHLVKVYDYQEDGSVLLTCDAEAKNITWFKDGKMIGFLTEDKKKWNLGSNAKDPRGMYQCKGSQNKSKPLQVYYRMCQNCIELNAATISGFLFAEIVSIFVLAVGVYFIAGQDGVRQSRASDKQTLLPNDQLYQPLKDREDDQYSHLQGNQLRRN
T1 sequence (Q9NZD1 whole entry): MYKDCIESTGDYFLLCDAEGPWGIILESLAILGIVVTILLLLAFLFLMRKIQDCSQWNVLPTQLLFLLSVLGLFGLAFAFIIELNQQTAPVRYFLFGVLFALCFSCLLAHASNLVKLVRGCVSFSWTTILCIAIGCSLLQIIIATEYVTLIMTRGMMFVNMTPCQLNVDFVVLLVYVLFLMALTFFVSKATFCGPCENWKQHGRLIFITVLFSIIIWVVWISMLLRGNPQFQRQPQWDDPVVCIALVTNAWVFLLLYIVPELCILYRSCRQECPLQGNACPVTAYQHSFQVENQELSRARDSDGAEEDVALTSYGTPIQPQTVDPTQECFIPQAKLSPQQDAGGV

EC50 (nM), luciferase assay, L363 [1]: 0.206 nM
EC50 (nM), luciferase assay, MM.1S [1]: 0.0592 nM
EC50 (nM), luciferase assay, MOLP-8 [1]: 0.000513 nM
Top (RLU), luciferase assay, L363 [1]: 1430 RLU
Top (RLU), luciferase assay, MM.1S [1]: 1700 RLU
Top (RLU), luciferase assay, MOLP-8 [1]: 213 RLU
MFI (50 µg/ml) [2]: 328 MFI
B1: Bis-40E9-L2H4 (bispecific antibody)
heavy: EVQLVQSGAEVKKPGASVKVSCKASGYTFTSYVIHWVRQAPGQGLEWMGYFNPYNDGTKYNEEFKGRVTLTSDKSTSTAYMELRSLRSDDTAVYYCARGGVRRYFDVWGQGTTVTVSS
heavy (part 1 of 2): B1 heavy
heavy (part 2 of 2): GGGGSGGGGSEVQLVQSGAEVKKPGSSVKVSCKASGYTFSSYVIHWVRQAPGQCLEWIGYINPYNDVIKYNEKFKGRATLTSDKSTSTAYMELSSLRSEDTAVYYCARDSYYSYDGFAYWGQGTLVTVSSGGGGSGGGGSGGGGSGGGGSEIVLTQSPDFQSVTPKEKVTITCSASSSVSYMHWYQQKPDQSPKRLIYDTSKLASGVPSRFSGSGSGTDFTLTINSLEAEDAATYYCQQWSSNPPTFGCGTKVEIKGGGGSGGGGS
light: DIQMTQSPSSLSASVGDRVTITCRASQDIGSNLNWLQQKPGKAIKRLIYATFGLDSGVPSRFSGSRSGTDFTLTISSLQPEDFATYYCQQYASFPYTFGGGTKVEIK
notes: Fab-scFv-Fab (2+1), LALA; not shown: CH1; CL; CH2-CH3 with L234A, L235A; heavy chain constant region with L234A, L235A
IC50 (nM), T-Cell Dependent Cytotoxicity, MM.1S [3]: 0.0125 nM
IC50 (nM), T-Cell Dependent Cytotoxicity, MOLP-8 [3]: 0.00239 nM
IC50 (nM), T-Cell Dependent Cytotoxicity, RPMI8226 [3]: 0.381 nM
Top (%), T-Cell Dependent Cytotoxicity, MM.1S [3]: 69%
Top (%), T-Cell Dependent Cytotoxicity, MOLP-8 [3]: 63.9%
Top (%), T-Cell Dependent Cytotoxicity, RPMI8226 [3]: 20.4%

EC50 (nM), luciferase assay, L363 [1]: 0.19 nM
EC50 (nM), luciferase assay, MM.1S [1]: 0.0719 nM
EC50 (nM), luciferase assay, MOLP-8 [1]: 0.906 nM
EC50 (nM), luciferase assay, RPMI8226 [1]: 0.878 nM
Top (RLU), luciferase assay, L363 [1]: 584 RLU
Top (RLU), luciferase assay, MM.1S [1]: 1720 RLU
Top (RLU), luciferase assay, MOLP-8 [1]: 118 RLU
Top (RLU), luciferase assay, RPMI8226 [1]: 113 RLU
MFI (50 µg/ml) [2]: 128 MFI
B2: Bis-40E9-L2H3-D99E.H (bispecific antibody)
heavy: B1 heavy
heavy (part 1 of 2): B1 heavy
heavy (part 2 of 2): B1 heavy (part 2 of 2) with I58M, A78V, D109E
light: B1 light
notes: as for B1
IC50 (nM), T-Cell Dependent Cytotoxicity, MM.1S [3]: 0.0244 nM
IC50 (nM), T-Cell Dependent Cytotoxicity, MOLP-8 [3]: 0.00776 nM
IC50 (nM), T-Cell Dependent Cytotoxicity, RPMI8226 [3]: 0.406 nM
Top (%), T-Cell Dependent Cytotoxicity, MM.1S [3]: 57.2%
Top (%), T-Cell Dependent Cytotoxicity, MOLP-8 [3]: 68.7%
Top (%), T-Cell Dependent Cytotoxicity, RPMI8226 [3]: 13.4%

EC50 (nM), luciferase assay, L363 [1]: 0.0397 nM
EC50 (nM), luciferase assay, MM.1S [1]: 0.423 nM
EC50 (nM), luciferase assay, MOLP-8 [1]: 0.0423 nM
Top (RLU), luciferase assay, L363 [1]: 942 RLU
Top (RLU), luciferase assay, MM.1S [1]: 5240 RLU
Top (RLU), luciferase assay, MOLP-8 [1]: 1080 RLU
MFI (50 µg/ml) [2]: 247 MFI
EC50 [4]: 210 pM
Top (MFI) [4]: 1090 MFI
EC50 [5]: 6160 pM
Top (MFI) [5]: 1070 MFI
B3: Bis-40E9-L2H3-D105R.H (bispecific antibody)
heavy 1: not shown
heavy 2: EVQLVQSGAEVKKPGASVKVSCKASGYTFTSYVIHWVRQAPGQGLEWMGYFNPYNDGTKYNEEFKGRVTLTSDKSTSTAYMELRSLRSDDTAVYYCARGGVRRYFDVWGQGTTVTVSSASTKGPSVFPLAPSSKSTSGGTAALGCLVKDYFPEPVTVSWNSGALTSGVHTFPAVLQSSGLYSLSSVVTVPSSSLGTQTYICNVNHKPSNTKVDKKVEPKSCGGGGSGGGGSEVQLVQSGAEVKKPGSSVKVSCKASGYTFSSYVIHWVRQAPGQCLEWMGYINPYNDVIKYNEKFKGRVTLTSDKSTSTAYMELSSLRSEDTAVYYCARDSYYSYRGFAYWGQGTLVTVSSGGGGSGGGGSGGGGSGGGGSEIVLTQSPDFQSVTPKEKVTITCSASSSVSYMHWYQQKPDQSPKRLIYDTSKLASGVPSRFSGSGSGTDFTLTINSLEAEDAATYYCQQWSSNPPTFGCGTKVEIKGGGGSGGGGSDKTHTCPPCPAPEAAGGPSVFLFPPKPKDTLMISRTPEVTCVVVDVSHEDPEVKFNWYVDGVEVHNAKTKPREEQYNSTYRVVSVLTVLHQDWLNGKEYKCKVSNKALPAPIEKTISKAKGQPREPQVCTLPPSREEMTKNQVSLSCAVKGFYPSDIAVEWESNGQPENNYKTTPPVLDSDGSFFLVSKLTVDKSRWQQGNVFSCSVMHEALHNHYTQKSLSLSPGK
light: DIQMTQSPSSLSASVGDRVTITCRASQDIGSNLNWLQQKPGKAIKRLIYATFGLDSGVPSRFSGSRSGTDFTLTISSLQPEDFATYYCQQYASFPYTFGGGTKVEIKRTVAAPSVFIFPPSDEQLKSGTASVVCLLNNFYPREAKVQWKVDNALQSGNSQESVTEQDSKDSTYSLSSTLTLSKADYEKHKVYACEVTHQGLSSPVTKSFNRGEC
notes: Fab-scFv-Fab (2+1), LALA
IC50 (nM), T-Cell Dependent Cytotoxicity, MM.1S [3]: 0.00579 nM
IC50 (nM), T-Cell Dependent Cytotoxicity, MOLP-8 [3]: 0.00463 nM
IC50 (nM), T-Cell Dependent Cytotoxicity, RPMI8226 [3]: 0.0366 nM
Top (%), T-Cell Dependent Cytotoxicity, MM.1S [3]: 75.7%
Top (%), T-Cell Dependent Cytotoxicity, MOLP-8 [3]: 70.1%
Top (%), T-Cell Dependent Cytotoxicity, RPMI8226 [3]: 12.4%

EC50 (nM), luciferase assay, L363 [1]: 0.155 nM
EC50 (nM), luciferase assay, MM.1S [1]: 0.0398 nM
Top (RLU), luciferase assay, L363 [1]: 1600 RLU
Top (RLU), luciferase assay, MM.1S [1]: 5630 RLU
Top (RLU), luciferase assay, MOLP-8 [1]: 1470 RLU
MFI (50 µg/ml) [2]: 207 MFI
EC50 [4]: 466 pM
Top (MFI) [4]: 876 MFI
EC50 [5]: 10100 pM
Top (MFI) [5]: 1150 MFI
B4: Bis-40E9-L2H3-Y101F.H (bispecific antibody)
heavy 1: not shown
heavy 2: B3 heavy 2 with Y332F, R336D
light: B3 light
notes: Fab-scFv-Fab (2+1), LALA
IC50 (nM), T-Cell Dependent Cytotoxicity, MM.1S [3]: 0.00723 nM
IC50 (nM), T-Cell Dependent Cytotoxicity, MOLP-8 [3]: 0.00499 nM
IC50 (nM), T-Cell Dependent Cytotoxicity, RPMI8226 [3]: 0.0226 nM
Top (%), T-Cell Dependent Cytotoxicity, MM.1S [3]: 62.8%
Top (%), T-Cell Dependent Cytotoxicity, MOLP-8 [3]: 77.1%
Top (%), T-Cell Dependent Cytotoxicity, RPMI8226 [3]: 12.2%

— patent US20260193348A1 (ANTENGENE BIOLOGICS, published 2026)
